These results are taken from article PMC8189437 (Molecular Cell, 2021).

B1: Gid8 with a C-terminal twin-Strep tag (natural protein)
chain: MTISTLSNETTKSGSCSGQGKNGGKDFTYGKKCFTKEEWKEQVAKYSAMGELYANKTIHYPLKIQPNSSGGSQDEGFATIQTTPIEPTLPRLLLNYFVSMAYEDSSIRMAKELGFIRNNKDIAVFNDLYKIKERFHIKHLIKLGRINEAMEEINSIFGLEVLEETFNATGSYTGRTDRQQQQQQQQFDIDGDLHFKLLLLNLIEMIRSHHQQENITKDSNDFILNLIQYSQNKLAIKASSSVKKMQELELAMTLLLFPLSDSADSGSIKLPKSLQNLYSISLRSKIADLVNEKLLKFIHPRIQFEISNNNSKFPDLLNSDKKIITQNFTVYNNNLVNGSNGTKITHISSDQPINEKMSSNEVTAAANSVWLNQRDGNVGTGSAATTFHNLENKNYWNQTSELLSSSNGKEKGLEFNNYYSSEFPYEPRLTQIMKLWCWCENQLHHNQIGVPRVEN

One data set deals with GST-WDR26 (human) (UniProt Q9H7D7). The data set can be described thus: cryo-EM structure.
The target of the next data set is T1, Gid9 (S. cerevisiae, UniProt P40492 1-516).
T1 sequence: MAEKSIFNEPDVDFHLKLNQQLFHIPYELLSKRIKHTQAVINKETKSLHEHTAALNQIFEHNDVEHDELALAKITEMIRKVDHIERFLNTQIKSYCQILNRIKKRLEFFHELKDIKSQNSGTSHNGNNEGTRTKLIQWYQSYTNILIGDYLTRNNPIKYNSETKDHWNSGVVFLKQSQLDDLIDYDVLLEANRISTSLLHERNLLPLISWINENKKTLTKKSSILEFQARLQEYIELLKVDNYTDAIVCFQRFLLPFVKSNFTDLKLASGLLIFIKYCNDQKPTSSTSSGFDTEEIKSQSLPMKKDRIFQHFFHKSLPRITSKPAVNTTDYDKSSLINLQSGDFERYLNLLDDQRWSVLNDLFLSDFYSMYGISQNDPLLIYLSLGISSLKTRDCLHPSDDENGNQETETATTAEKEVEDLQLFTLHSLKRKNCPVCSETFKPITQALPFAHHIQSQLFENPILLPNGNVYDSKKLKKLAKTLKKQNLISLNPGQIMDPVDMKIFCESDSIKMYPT
In words: cryo-EM structure.

In the next data set the target is T2, Gid1 (S. cerevisiae, UniProt P53076).
T2 sequence: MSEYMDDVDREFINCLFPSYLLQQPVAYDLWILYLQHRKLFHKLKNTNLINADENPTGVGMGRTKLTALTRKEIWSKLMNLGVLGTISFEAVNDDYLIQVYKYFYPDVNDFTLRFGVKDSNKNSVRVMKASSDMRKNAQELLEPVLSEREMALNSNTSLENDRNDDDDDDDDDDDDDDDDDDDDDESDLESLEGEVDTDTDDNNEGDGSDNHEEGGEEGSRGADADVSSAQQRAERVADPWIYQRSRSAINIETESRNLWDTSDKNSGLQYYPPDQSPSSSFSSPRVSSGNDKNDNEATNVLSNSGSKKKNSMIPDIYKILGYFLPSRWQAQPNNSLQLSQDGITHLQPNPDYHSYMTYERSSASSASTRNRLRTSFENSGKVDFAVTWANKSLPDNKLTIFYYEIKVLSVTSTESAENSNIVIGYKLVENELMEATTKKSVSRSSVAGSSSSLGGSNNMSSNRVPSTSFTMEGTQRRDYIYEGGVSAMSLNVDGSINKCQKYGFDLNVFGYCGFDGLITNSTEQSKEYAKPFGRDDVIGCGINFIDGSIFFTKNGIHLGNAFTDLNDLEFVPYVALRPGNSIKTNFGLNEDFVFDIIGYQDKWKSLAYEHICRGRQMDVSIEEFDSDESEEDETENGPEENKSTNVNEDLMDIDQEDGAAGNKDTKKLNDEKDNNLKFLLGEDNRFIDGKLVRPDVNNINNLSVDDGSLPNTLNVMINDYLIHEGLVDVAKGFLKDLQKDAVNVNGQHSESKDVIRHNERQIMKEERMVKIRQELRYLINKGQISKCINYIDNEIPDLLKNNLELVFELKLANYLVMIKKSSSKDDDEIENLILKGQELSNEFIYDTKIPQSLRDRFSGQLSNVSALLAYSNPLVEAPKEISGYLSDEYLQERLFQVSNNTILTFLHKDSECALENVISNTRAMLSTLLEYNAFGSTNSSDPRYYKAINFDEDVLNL
In words: cryo-EM structure.

For another data set, the target named is T3, Gid5 (S. cerevisiae, UniProt P40547).
T3 sequence: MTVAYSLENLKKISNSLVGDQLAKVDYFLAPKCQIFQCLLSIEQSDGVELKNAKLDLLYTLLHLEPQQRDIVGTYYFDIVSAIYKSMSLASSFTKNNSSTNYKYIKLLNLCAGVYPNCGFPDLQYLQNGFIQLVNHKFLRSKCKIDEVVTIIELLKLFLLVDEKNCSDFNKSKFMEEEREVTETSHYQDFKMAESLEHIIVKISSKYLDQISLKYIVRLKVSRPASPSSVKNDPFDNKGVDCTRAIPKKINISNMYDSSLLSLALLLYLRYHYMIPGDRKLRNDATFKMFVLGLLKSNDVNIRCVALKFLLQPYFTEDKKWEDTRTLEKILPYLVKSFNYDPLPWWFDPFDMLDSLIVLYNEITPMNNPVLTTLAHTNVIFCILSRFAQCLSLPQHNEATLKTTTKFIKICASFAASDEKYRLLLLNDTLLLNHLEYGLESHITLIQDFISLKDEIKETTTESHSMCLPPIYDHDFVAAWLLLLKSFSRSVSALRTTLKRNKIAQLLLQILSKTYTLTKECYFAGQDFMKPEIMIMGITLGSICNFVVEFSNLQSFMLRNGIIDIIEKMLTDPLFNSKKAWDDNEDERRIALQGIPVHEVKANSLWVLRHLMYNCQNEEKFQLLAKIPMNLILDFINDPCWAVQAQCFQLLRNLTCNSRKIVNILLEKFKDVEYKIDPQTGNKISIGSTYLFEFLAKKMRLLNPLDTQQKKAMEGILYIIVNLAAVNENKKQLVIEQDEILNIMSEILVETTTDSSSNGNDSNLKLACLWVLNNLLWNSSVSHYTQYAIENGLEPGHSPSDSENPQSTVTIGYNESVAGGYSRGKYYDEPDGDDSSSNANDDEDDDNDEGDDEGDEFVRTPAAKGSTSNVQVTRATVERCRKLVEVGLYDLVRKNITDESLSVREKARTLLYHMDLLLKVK
The data set can be described thus: cryo-EM structure.

The data set “crystal structure” deals with the molecule itself. In words: crystal structure.
Data set [1] deals with B1. The data set can be described thus: cryo-EM structure.

As a reminder, the stoichiometry N is a count of units in the complex or per binding partner. Regarding “GST-WDR26 (from UniProt Q9H7D7 1-661) (natural protein)”, the stoichiometry N with GST-WDR26 (human) worked out at 2.

Consider B1, for which the binding result with Gid9 and with Gid1 was “binds” in each case.

B2: Gid4 (Δ1-116) (domain or fragment)
chain: TVCTNYLRPRMQFTGYQISGYKRYQVTVNLKTVDLPKKDCTSLSPHLSGFLSIRGLTNQHPEISTYFEAYAVNHKELGFLSSSWKDEPVLNEFKATDQTDLEHWINFPSFRQLFLMSQKNGLNSTDDNGTTNAAKKLPPQQLPTTPSADAGNISRIFSQEKQFDNYLNERFIFMKWKEKFLVPDALLMEGVDGASYDGFYYIVHDQVTGNIQGFYYHQDAEKFQQLELVPSLKNKVESSDCSFEFA
Regarding B2, the binding result with Gid5 was “binds”.

B3: fructose-1,6-bisphosphatase (Fbp1), C-terminally 6xHis-tagged (enzyme)
chain: PTLVNGPRRDSTEGFDTDIITLPRFIIEHQKQFKNATGDFTLVLNALQFAFKFVSHTIRRAELVNLVGLAGASNFTGDQQKKLDVLGDEIFINAMRASGIIKVLVSEEQEDLIVFPTNTGSYAVCCDPIDGSSNLDAGVSVGTIASIFRLLPDSSGTINDVLRCGKEMVAACYAMYGSSTHLVLTLGDGVDGFTLDTNLGEFILTHPNLRIPPQKAIYSINEGNTLYWNETIRTFIEKVKQPQADNNNKPFSARYVGSMVADVHRTFLYGGLFAYPCDKKSPNGKLRLLYEAFPMAFLMEQAGGKAVNDRGERILDLVPSHIHDKSSIWLGSSGEIDKFLDHIGKSQ
For the molecule B3, in “crystal structure”, the “stoichiometry N” value was 4.

B4: Gid2 (natural protein)
chain: MSELLDSFETEFAKFYTDSNLEETNLQKCLDHTHEFKSQLKKLKAHLNKHIQESKPEVYNKLSDKEKQKFKRKRELIIEKLSKSQRQWDHSVKKQIKYVSQQSNRFNKSTLNKLKEFDIDSVYVNKLPKETMENVNEAIGYHILRYSIDNMPLGNKNEAFQYLKDVYGITNKESTEFIEMGQIVHDLKKGDTESCLKWCSNEMESLSSNHTALSSLKFDLYTLSAMQIVKHGNPVELYYQITQNAPLDCFRHREKELMQNVVPLLTKSLIGQPIEDIDSKVNKELKECTSLFIKEYCAAKHIFFDSPLFLIVLSGLISFQFFIKYKTIRELAHVDWTTKDELPFDVKLPDFLTHFHPIFICPVLKEETTTENPPYSLACHHIISKKALDRLSKNGTITFKCPYCPVNTSMSSTKKVRFVML
As for B4, the binding result (in the data set with Gid9; in data set [1]) was “binds” throughout.
